Source: US20040077031

Tests used:
[1] = target: T1, MGNAAAAK (PKC a) octameric peptide
T1 chain: MGNAAAAK

MGKVKVG (GADPH) peptide = target: T2, MGKVKVG (GADPH) peptide
T2 chain: MGKVKVG

MGKVKV peptide = target: T3, MGKVKV peptide
T3 chain: MGKVKV

MGKV peptide = target: T4, MGKV peptide
T4 chain: MGKV

MGKVK peptide = target: T5, MGKVK peptide
T5 chain: MGKVK

MGKVKVGVN peptide = target: T6, MGKVKVGVN peptide
T6 chain: MGKVKVGVN

MGK peptide = target: T7, MGK peptide
T7 chain: MGK

MGKVKVGVNG peptide = target: T8, MGKVKVGVNG peptide
T8 chain: MGKVKVGVNG

[2] = target: T9, MAS (methionine-alanine-serine) trimeric peptide
T9 chain: MAS

MGKVKVGVNGF peptide = target: T10, MGKVKVGVNGF peptide
T10 chain: MGKVKVGVNGF

[3] = target: T11, MGAQFSKT (MARCKS protein) octameric peptide
T11 chain: MGAQFSKT

[4] = target: T12, MGSSKSKP (Src p60) octameric peptide
T12 chain: MGSSKSKP

[5] = target: T13, MGNLKSVA (eNOS) octameric peptide
T13 chain: MGNLKSVA

B1: recombinant human methionine aminopeptidase type 2 (MetAP2) with N-terminal histidine tag (protein)
chain: MAGVEEVAASGSHLNGDLDPDDREEGAASTAEEAAKKKRRKKKKSKGPSAAGEQEPDKESGASVDEVARQLERSALEDKERDEDDEDGDGDGDGATGKKKKKKKKKRGPKVQTDPPSVPICDLYPNGVFPKGQECEYPPTQDGRTAAWRTTSEEKKALDQASEEIWNDFREAAEAHRQVRKYVMSWIKPGMTMIEICEKLEDCSRKLIKENGLNAGLAFPTGCSLNNCAAHYTPNAGDTTVLQYDDICKIDFGTHISGRIIDCAFTVTFNPKYDTLLKAVKDATNTGIKCAGIDVRLCDVGEAIQEVMESYEVEIDGKTYQVKPIRNLNGHSIGQYRIHAGKTVPIVKGGEATRMEEGEVYAIETFGSTGKGVVHDDMECSHYMKNFDVGHVPIRLPRTKHLLNVINENFGTLAFCRRWLDRLGESKYLMALKNLCDLGIVDPYPPLCDIKGSYTAQFEHTILLRPTCKEVVSRGDDY
[1]
  Km: 260 µM
  kcat: 3.78 s⁻¹
  kcat/Km: 0.9
MGKVKVG (GADPH) peptide
  Km: 215 µM
  kcat: 9.56 s⁻¹
  kcat/Km: 2.7
MGKVKV peptide
  Km: 149 µM
  kcat: 8.53 s⁻¹
  kcat/Km: 3.4
MGKV peptide
  Km: 624 µM
  kcat: 6.7 s⁻¹
  kcat/Km: 0.6
MGKVK peptide
  Km: 188 µM
  kcat: 10.4 s⁻¹
  kcat/Km: 3.3
MGKVKVGVN peptide
  Km: 205 µM
  kcat: 10.2 s⁻¹
  kcat/Km: 3
MGK peptide
  Km: 758 µM
  kcat: 3.32 s⁻¹
  kcat/Km: 0.3
MGKVKVGVNG peptide
  Km: 164 µM
  kcat: 10.2 s⁻¹
  kcat/Km: 3.7
[2]
  Km: 212 µM
  baseline activity (turnover, no added metal): 0.19 µM/min turnover of MAS at 60 nM MetAP2
  enzymatic cleavage of peptide substrate: showed enzymatic activity in cleaving a tripeptide MAS substrate
  kcat: 2.54 s⁻¹
  kcat/Km: 0.72
MGKVKVGVNGF peptide
  Km: 131 µM
  kcat: 9.43 s⁻¹
  kcat/Km: 4.3
[3]
  Km: 224 µM
  baseline activity (turnover, no added metal): 0.12 µM/min turnover of MGAQFSKT at 30 nM MetAP2
  kcat: 4.87 s⁻¹
  kcat/Km: 1.3
[4]
  Km: 233 µM
  kcat: 3.94 s⁻¹
  kcat/Km: 1
[5]
  Km: 208 µM
  kcat: 4.87 s⁻¹
  kcat/Km: 1.4
